# Columns and labels:
# [1] = biological target: Ac-SLP-1, saposin-like protein from the dog hookworm Ancylostoma caninum (Ancylostoma caninum); test: native gel or EMSA; native gel of purified Ac-SLP-1; migrates at 20 kDa under native conditions, at smaller sizes with SDS
# [2] = biological target: Ac-SLP-1, saposin-like protein from the dog hookworm Ancylostoma caninum (Ancylostoma caninum); test: SEC-MALS; Superose-12 column; samples injected at 5–10 mg mL^−1; 100 mM NaCl, 20 mM HEPES (pH 7.5) or 100 mM Na-citrate (pH 5.0); same result at both pH
substance,measurement,setting,value
"Ac-SLP-1, saposin-like protein from the dog hookworm Ancylostoma caninum (natural protein)",stoichiometry N,[1],2
same,stoichiometry N,[2],2
